Experimental data reported in paper PMC7729135, “PPARγ S273 Phosphorylation Modifies the Dynamics of Coregulator Proteins Recruitment” (Frontiers in Endocrinology, 2020).

B2: PPARγ LBD (aa207-aa477), purified (domain or fragment, UniProt P37231-2 207-477, looked up)
chain: ESADLRALAKHLYDSYIKSFPLTKAKARAILTGKTTDKSPFVIYDMNSLMMGEDKIKFKHITPLQEQSKEVAIRIFQGCQFRSVEAVQEITEYAKSIPGFVNLDLNDQVTLLKYGVHEIIYTMLASLMNKDGVLISEGQGFMTREFLKSLRKPFGDFMEPKFEFAVKFNALELDDSDLAIFIAVIILSGDRPGLLNVKPIEDIQDNLLQALELQLKLNHPESSQLFAKLLQKMTDLRQIVTEHVQLLQVIKKTETDMSLHPLLQEIYKDLY
notes: also called PPARγ wt; PPARγ wild-type

How the values were obtained:
[1] = biological target: VP16-PPARγ (LBD region of PPARγ fused to the VP16 transactivation domain) (UniProt P37231); assay: mammalian two-hybrid assay; details: for response: read off a plot; for other: Dissociation ratio / other: Fold activation: Rosiglitazone against no treatment
[2] = biological target: Gal-SMRT (ID1 + ID2, human SMRT from 982 to the C terminus) (human); assay: two-hybrid; mammalian two-hybrid in Hek293T cells (corepressors): Gal4 DBD-corepressor + VP16-PPARγ LBD + pGRE-LUC + Renilla control; with or without 1 μM Rosiglitazone for 24 h; interaction rate = luminescence divided by that of the corepressor without PPARγ
Gal-SMRT (ID1 + ID2, human SMRT from 982 to the C terminus) (human), sequence (Q9Y618 whole entry, the tested form may be a part): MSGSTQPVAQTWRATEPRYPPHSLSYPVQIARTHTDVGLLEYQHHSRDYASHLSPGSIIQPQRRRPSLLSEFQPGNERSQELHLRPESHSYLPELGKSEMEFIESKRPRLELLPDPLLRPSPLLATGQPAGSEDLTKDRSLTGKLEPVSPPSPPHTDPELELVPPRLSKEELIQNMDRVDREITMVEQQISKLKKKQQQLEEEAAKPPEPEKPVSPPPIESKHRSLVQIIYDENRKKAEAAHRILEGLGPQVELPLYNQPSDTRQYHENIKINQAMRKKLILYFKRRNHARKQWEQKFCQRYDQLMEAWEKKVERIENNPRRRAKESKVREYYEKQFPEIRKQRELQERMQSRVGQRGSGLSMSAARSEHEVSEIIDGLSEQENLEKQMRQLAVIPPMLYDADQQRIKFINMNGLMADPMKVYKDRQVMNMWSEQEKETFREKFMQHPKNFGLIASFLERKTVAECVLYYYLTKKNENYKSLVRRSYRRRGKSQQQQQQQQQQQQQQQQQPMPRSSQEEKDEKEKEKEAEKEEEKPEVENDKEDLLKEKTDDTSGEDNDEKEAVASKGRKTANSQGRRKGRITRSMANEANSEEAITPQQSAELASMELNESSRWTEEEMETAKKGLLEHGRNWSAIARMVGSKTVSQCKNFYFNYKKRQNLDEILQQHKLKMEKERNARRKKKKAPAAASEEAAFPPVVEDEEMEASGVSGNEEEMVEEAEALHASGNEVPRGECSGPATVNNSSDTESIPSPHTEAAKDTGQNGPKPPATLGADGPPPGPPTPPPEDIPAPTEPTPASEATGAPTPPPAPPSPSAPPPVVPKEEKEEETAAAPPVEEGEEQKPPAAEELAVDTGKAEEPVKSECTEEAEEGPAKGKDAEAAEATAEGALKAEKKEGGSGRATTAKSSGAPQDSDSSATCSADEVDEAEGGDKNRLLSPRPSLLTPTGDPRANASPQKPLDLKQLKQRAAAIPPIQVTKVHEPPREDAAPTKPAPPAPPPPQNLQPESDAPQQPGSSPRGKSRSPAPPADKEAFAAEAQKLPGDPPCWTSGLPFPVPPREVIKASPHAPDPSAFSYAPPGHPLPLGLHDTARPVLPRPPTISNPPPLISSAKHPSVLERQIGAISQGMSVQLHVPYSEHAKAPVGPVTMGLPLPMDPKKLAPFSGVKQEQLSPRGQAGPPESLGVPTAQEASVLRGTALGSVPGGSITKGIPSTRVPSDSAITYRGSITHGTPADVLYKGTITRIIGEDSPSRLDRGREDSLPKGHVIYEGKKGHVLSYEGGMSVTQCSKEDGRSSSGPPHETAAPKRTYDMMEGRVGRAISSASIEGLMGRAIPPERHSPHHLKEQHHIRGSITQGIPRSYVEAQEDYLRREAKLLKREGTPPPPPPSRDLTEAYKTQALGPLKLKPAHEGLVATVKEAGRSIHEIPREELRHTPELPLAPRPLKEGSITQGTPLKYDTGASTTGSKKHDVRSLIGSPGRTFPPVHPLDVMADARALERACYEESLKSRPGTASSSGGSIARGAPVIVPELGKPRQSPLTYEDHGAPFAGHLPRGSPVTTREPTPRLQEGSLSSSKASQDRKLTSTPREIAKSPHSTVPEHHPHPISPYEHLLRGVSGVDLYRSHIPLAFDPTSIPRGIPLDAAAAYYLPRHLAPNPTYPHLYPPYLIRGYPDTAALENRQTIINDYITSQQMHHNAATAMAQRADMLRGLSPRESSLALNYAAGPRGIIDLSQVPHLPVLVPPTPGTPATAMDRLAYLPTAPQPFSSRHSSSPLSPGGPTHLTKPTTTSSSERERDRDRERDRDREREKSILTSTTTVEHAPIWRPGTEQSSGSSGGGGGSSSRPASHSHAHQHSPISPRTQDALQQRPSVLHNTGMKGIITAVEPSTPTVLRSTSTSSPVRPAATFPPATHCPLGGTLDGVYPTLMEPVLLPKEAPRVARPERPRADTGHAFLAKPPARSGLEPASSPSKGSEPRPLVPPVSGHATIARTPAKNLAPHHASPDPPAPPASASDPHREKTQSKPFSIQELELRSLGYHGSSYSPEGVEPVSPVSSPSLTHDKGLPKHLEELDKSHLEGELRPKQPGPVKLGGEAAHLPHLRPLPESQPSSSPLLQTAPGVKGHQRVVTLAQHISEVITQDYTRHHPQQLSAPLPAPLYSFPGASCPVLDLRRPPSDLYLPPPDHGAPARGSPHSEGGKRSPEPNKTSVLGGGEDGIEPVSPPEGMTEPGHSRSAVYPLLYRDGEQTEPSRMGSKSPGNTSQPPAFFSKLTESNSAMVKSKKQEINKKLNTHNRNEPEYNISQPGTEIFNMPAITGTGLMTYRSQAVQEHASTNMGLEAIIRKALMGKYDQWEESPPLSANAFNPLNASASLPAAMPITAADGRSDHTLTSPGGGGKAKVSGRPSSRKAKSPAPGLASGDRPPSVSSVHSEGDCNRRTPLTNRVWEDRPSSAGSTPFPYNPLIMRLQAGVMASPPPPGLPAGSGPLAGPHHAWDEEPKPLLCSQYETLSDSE

[3] = biological target: T1, Gal-NCoR (ID1 + ID2 + ID3, mouse NCoR from 1629 to the C terminus) (mouse, UniProt Q60974 1629-2453); assay: as above; details: partners not purified
T1 construct: mouse NCoR from 1629 to the C terminus (ID1 + ID2 + ID3), in the vector pM (Clontech); Plasmid provided by A. Le Maire (CBS, CNRS); also called NCoR wt; source: HEK293T cells, transfected (mammalian two-hybrid fusion)
T1 sequence (looked up): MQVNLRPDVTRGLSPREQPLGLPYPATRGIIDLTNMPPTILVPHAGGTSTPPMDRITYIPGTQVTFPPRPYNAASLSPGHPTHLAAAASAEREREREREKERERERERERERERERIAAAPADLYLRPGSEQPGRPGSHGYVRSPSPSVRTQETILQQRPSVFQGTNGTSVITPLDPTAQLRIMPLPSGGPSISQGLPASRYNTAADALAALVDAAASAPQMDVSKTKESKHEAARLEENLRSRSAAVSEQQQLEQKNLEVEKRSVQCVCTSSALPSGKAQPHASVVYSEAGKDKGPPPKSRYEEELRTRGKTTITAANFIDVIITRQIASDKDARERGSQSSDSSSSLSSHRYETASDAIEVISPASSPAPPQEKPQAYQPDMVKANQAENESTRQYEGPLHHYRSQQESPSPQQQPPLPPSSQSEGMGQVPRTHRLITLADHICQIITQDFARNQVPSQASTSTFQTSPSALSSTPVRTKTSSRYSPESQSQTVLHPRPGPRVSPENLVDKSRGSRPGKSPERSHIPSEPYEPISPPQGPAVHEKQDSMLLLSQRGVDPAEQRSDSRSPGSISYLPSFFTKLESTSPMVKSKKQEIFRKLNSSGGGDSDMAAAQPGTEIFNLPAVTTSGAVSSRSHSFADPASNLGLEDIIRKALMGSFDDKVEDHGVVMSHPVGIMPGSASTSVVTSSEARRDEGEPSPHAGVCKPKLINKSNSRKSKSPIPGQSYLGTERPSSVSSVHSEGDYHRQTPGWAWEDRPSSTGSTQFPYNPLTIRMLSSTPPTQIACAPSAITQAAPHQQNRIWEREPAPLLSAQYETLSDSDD

[4] = biological target: T1, Gal-NCoR (ID1 + ID2 + ID3, mouse NCoR …); assay: two-hybrid; as a2 (Hek293T cells, corepressors) with co-transfected pCDNA-CDK5 (CDK5 and P35); details: partners not purified
[5] = biological target: T2, Gal-PGC1-α (mouse PGC1-α 136-340) (mouse, UniProt O70343 136-340); assay: two-hybrid; as a1 (COS-7 cells, coactivators) with co-transfected pCDNA-CDK5 (CDK5 and P35); details: partners not purified
T2 construct: mouse PGC1-α, amino acids 136 to 340, in the vector pM (Clontech); holds ID1 LKKLL (residues 142-146); also called PGC1-α wt; Gal4-PGC1-α; source: COS-7 cells, transfected (mammalian two-hybrid fusion)
T2 sequence (looked up): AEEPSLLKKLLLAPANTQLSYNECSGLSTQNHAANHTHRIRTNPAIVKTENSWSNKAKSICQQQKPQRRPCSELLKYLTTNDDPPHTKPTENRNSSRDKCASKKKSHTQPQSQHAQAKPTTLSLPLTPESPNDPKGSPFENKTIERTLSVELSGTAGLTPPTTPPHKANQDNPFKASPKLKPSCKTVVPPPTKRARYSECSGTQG

[6] = biological target: Gal-SMRT ID2m (human); assay: two-hybrid; mammalian two-hybrid in Hek293T cells (corepressors): Gal4 DBD-corepressor + VP16-PPARγ LBD + pGRE-LUC + Renilla control; with or without 1 μM Rosiglitazone for 24 h; interaction rate = luminescence divided by that of the corepressor without PPARγ
[7] = biological target: T2, Gal-PGC1-α (mouse PGC1-α 136-340); assay: two-hybrid; mammalian two-hybrid in COS-7 cells (coactivators): Gal4 DBD-coactivator + VP16-PPARγ LBD + pGRE-LUC + Renilla control; with or without 1 μM Rosiglitazone for 24 h; interaction rate = luminescence divided by that of the empty Gal4 vector; details: partners not purified
[8] = biological target: T3, Gal-TRAP220 (ID1 + ID2, human TRAP220 404-654) (human, UniProt Q15648 404-654); assay: as above; details: partners not purified
T3 construct: human TRAP220, amino acids 404 to 654 (ID1 + ID2), in the vector pM (Clontech); source: COS-7 cells, transfected (mammalian two-hybrid fusion)
T3 sequence (Q15648 404-654): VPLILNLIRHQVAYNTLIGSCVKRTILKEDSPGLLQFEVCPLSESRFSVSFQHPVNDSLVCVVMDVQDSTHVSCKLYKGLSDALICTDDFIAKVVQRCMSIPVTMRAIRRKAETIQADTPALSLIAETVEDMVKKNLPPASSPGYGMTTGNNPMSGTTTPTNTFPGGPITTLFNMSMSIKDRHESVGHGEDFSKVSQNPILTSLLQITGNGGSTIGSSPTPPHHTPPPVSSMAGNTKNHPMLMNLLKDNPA

[9] = biological target: T4, Gal-TIF2 (three interaction domains, human TIF2 624-869) (human, UniProt Q15596 624-869); assay: as above; details: partners not purified
T4 construct: also called TIF2 wt; source: COS-7 cells, transfected (mammalian two-hybrid fusion)
T4 sequence (looked up): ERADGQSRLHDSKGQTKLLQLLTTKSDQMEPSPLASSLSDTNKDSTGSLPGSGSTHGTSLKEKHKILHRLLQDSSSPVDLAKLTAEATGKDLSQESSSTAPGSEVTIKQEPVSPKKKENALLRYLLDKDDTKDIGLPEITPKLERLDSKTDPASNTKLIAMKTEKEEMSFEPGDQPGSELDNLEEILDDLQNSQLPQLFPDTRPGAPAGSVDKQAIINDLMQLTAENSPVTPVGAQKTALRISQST

[10] = biological target: T5, GST-tagged SMRT (aa2041-aa2359) (UniProt Q9Y618 2041-2359, FITC (fluorescein isothiocyanate) label in the fluorescence anisotropy assay; unlabelled in the pull-down); assay: fluorescence polarisation; fluorescence anisotropy: PPARγ wt, S273A or S273D (200 μM to 6 nM) titrated into FITC-labelled affinity purified corepressor, in the elution buffer of the corepressor; Kd from a Hill model; details: both partners purified
T5 construct: SMRT aa2041-aa2359; source: modified E. coli BL21(DE3) strain
T5 sequence (Q9Y618 2041-2359): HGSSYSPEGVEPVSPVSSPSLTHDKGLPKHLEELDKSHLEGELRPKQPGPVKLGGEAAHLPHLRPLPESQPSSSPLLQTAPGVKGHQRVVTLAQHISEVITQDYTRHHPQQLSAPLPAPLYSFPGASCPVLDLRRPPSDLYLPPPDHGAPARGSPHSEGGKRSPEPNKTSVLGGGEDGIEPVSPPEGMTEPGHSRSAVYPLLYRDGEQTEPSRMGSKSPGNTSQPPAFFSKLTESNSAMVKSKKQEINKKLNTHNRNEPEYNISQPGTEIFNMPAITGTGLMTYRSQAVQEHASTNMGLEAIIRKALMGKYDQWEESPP

[11] = biological target: B2; assay: pull-down; coactivators: extract of His tagged PGC1-α on TALON resin or of GST-tagged TIF2 on Glutathione Sepharose, washed; then purified tag-free PPARγ or S273A, pre-incubated 20 min with rosiglitazone, 2 h at 4°C; eluate blotted with anti-PPARγ; details: both partners purified
[12] = biological target: B2; assay: fluorescence polarisation; fluorescence anisotropy: PPARγ wt, S273A or S273D (200 μM to 6 nM) titrated into FITC-labelled affinity purified coactivator, in the elution buffer of the coactivator, with Rosiglitazone (3× molar excess); Kd from a Hill model; details: both partners purified

Gal-NCoR (ID1 + ID2 + ID3, mouse NCoR from 1629 to the C terminus) (from UniProt Q60974) ID3 IDVII changed to IDVAA
response ([1]; No treatment, parent: est. 3.6): 2.2
other: Dissociation ratio [1]: 39%
response ([1]; Rosiglitazone, parent: est. 1.2): 1.3

Gal-SMRT (ID1 + ID2, human SMRT from 982 to the C terminus) V2097A; I2098A
response ([1]; No treatment, parent: est. 2.3): 2.4
other: Dissociation ratio [1]: 58%

Gal-TIF2 (three interaction domains, human TIF2 624-869) (from UniProt Q15596) ID2 LHRLL changed to LHRAA
response ([1]; No treatment, parent: est. 1.0): 1.3
other: Fold activation [1]: 0.3
response ([1]; Rosiglitazone, parent: est. 1.4): 1.7

Gal-TIF2 (three interaction domains, human TIF2 624-869) (from UniProt Q15596) ID3 LRYLL changed to LRYAA
response ([1]; No treatment, parent: est. 0.95): 0.45
other: Fold activation [1]: 0.5
response ([1]; Rosiglitazone, parent: est. 1.3): 0.75

VP16-PPARγ (LBD region of PPARγ fused to the VP16 transactivation domain) (from UniProt P37231 238-503) (domain or fragment)
dissociation rate in the presence of the ligand (Rosiglitazone) [2]: 65%

B1: VP16-PPARγ (LBD region of PPARγ fused to the VP16 transactivation domain) (domain or fragment, UniProt P37231 238-503, looked up)
chain: DLRALAKHLYDSYIKSFPLTKAKARAILTGKTTDKSPFVIYDMNSLMMGEDKIKFKHITPLQEQSKEVAIRIFQGCQFRSVEAVQEITEYAKSIPGFVNLDLNDQVTLLKYGVHEIIYTMLASLMNKDGVLISEGQGFMTREFLKSLRKPFGDFMEPKFEFAVKFNALELDDSDLAIFIAVIILSGDRPGLLNVKPIEDIQDNLLQALELQLKLNHPESSQLFAKLLQKMTDLRQIVTEHVQLLQVIKKTETDMSLHPLLQEIYKD
notes: plasmid provided by A. Le Maire (CBS, CNRS); also called PPARγ wt; source: COS-7 or HEK293T cells, transfected (mammalian two-hybrid fusion)
interaction rate in the two-hybrid assay (fold), in absence of CDK5 [3]: 4 fold
interaction rate in the two-hybrid assay (fold), with CDK5 [4]: 2 fold
interaction rate in the two-hybrid assay (fold), with CDK5 [5]: 2 fold
fold reduction of the interaction against SMRT wt [6]: 6 fold
interaction rate in the two-hybrid assay (fold) [7]: 7 fold
interaction rate in the two-hybrid assay (fold), in absence of CDK5 [7]: 5 fold
interaction rate in the two-hybrid assay (fold) [8]: 4 fold
interaction rate in the two-hybrid assay (fold), in absence of CDK5 [9]: 1.5 fold

B2
Kd [10]: 4.06 ± 1.01 µM

B3: GST-tagged TIF2 (aa563-aa757) (domain or fragment, UniProt Q15596 563-757, looked up)
chain: QNSPVNMNPPPLSKMGSLDSKDCFGLYGEPSEGTTGQAESSCHPGEQKETNDPNLPPAVSSERADGQSRLHDSKGQTKLLQLLTTKSDQMEPSPLASSLSDTNKDSTGSLPGSGSTHGTSLKEKHKILHRLLQDSSSPVDLAKLTAEATGKDLSQESSSTAPGSEVTIKQEPVSPKKKENALLRYLLDKDDTKDI
modifications: FITC (fluorescein isothiocyanate) label in the fluorescence anisotropy assay; unlabelled in the pull-down
notes: TIF2 aa563-aa757; source: E. coli BL21 (DE3)
binding result [11]: binds

B4: His tagged PGC1-α (aa138-aa341) (domain or fragment, UniProt O70343 138-341, looked up)
chain: EPSLLKKLLLAPANTQLSYNECSGLSTQNHAANHTHRIRTNPAIVKTENSWSNKAKSICQQQKPQRRPCSELLKYLTTNDDPPHTKPTENRNSSRDKCASKKKSHTQPQSQHAQAKPTTLSLPLTPESPNDPKGSPFENKTIERTLSVELSGTAGLTPPTTPPHKANQDNPFKASPKLKPSCKTVVPPPTKRARYSECSGTQGS
modifications: FITC (fluorescein isothiocyanate) label in the fluorescence anisotropy assay; unlabelled in the pull-down
notes: PGC1-α aa138-aa341; source: E. coli BL21 (DE3)
Kd [12]: 55.8 ± 2.9 µM
